# The supplement of paper PMC10567573
# B1: WDR41 (parent)
# chain: WTMQAYERNFWDPSPQLDTQQEIK
# Variants of: B1
# Assay: protein stability index of a GFP-peptide fusion (GPS, HEK-293T) (PSI 1-6); higher = more stable
# Settings: c terminus: a fixed tail appended
# 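Also: lentivirally expressed fusions sorted by FACS into six bins by GFP to DsRed ratio, PSI derived from sequencing read proportions per bin multiplied by bin number.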
row,Variant,protein stability index
1,WTMQAYERNFWDPSPQLDTQPEIK,2.66
2,WTMQAYERNFWDPSPQLDTQNEIK,2.71
3,WTMQAYERNFWDPSPQLDTQMEIK,2.93
4,WTMQAYERNFWDPSPQLDTQEEIK,2.56
5,WTMQAYERNFWDPSPQLDTQLEIK,1.92
6,WTMQAYERNFWDPSPQLDTQDEIK,2.1
7,WTMQAYERNFWDPSPQLDTQGEIK,2.62
8,WTMQAYERNFWDCSPQLDTQQEIK,2.31
9,WTMQAYERNFWDNSPQLDTQQEIK,2.29
10,WTMQAYERNFWDYSPQLDTQQEIK,2.26
11,WTMQAYERNFWDFSPQLDTQQEIK,1.82
12,WTMQAYERNFWDHSPQLDTQQEIK,2.33
13,WTMQAYERNFWDESPQLDTQQEIK,3.17
14,WTMQAYERNFWDASPQLDTQQEIK,2.11
15,WTMQAYERNFWDQSPQLDTQQEIK,2.65
16,WTMQEYERNFWDPSPQLDTQQEIK,3.65
17,WTMQSYERNFWDPSPQLDTQQEIK,2.75
18,WTMQQYERNFWDPSPQLDTQQEIK,2.85
19,WTMQMYERNFWDPSPQLDTQQEIK,2.71
20,WTMQDYERNFWDPSPQLDTQQEIK,3.33
21,WTMQFYERNFWDPSPQLDTQQEIK,1.91
22,WTMQCYERNFWDPSPQLDTQQEIK,2.51
23,WTMQPYERNFWDPSPQLDTQQEIK,2.49
24,WTQQAYERNFWDPSPQLDTQQEIK,3.07

row,Variant,protein stability index
1,WTDQAYERNFWDPSPQLDTQQEIK,3.96
2,WTAQAYERNFWDPSPQLDTQQEIK,2.44
3,WTSQAYERNFWDPSPQLDTQQEIK,1.79
4,WTYQAYERNFWDPSPQLDTQQEIK,2.24
5,WTWQAYERNFWDPSPQLDTQQEIK,2.77
6,WTTQAYERNFWDPSPQLDTQQEIK,2.86
7,WTLQAYERNFWDPSPQLDTQQEIK,2.69
8,WTMQAYERNFRDPSPQLDTQQEIK,4.47
9,WTMQAYERNFADPSPQLDTQQEIK,4.26
10,WTMQAYERNFPDPSPQLDTQQEIK,3.97
11,WTMQAYERNFTDPSPQLDTQQEIK,3.93
12,WTMQAYERNFYDPSPQLDTQQEIK,3.5
13,WTMQAYERNFLDPSPQLDTQQEIK,4.43
14,WTMQAYERLFWDPSPQLDTQQEIK,1.35
15,WTMQAYERWFWDPSPQLDTQQEIK,1.59
16,WTMQAYEREFWDPSPQLDTQQEIK,3.29
17,WTMQAYERRFWDPSPQLDTQQEIK,1.63
18,WTMQAYERDFWDPSPQLDTQQEIK,3.69
19,WTMQAYERHFWDPSPQLDTQQEIK,1.6
20,WTMQAYERQFWDPSPQLDTQQEIK,1.64
21,WTMQAYERKFWDPSPQLDTQQEIK,1.94
22,WTMQAYERNFWDPSPQSDTQQEIK,2.68
23,WTMQAYERNFWDPSPQQDTQQEIK,3.18
24,WTMQAYERNFWDPSPQNDTQQEIK,2.8

row,Variant,protein stability index
1,WTMQAYERNFWDPSPQADTQQEIK,2.6
2,WTMQAYERNFWDPSPQCDTQQEIK,2.58
3,WTMQAYERNFWDPSPQIDTQQEIK,2.25
4,WTMQAYERNFWDPSPQYDTQQEIK,2.49
5,WTMQAYERNFWDPSFQLDTQQEIK,1.96
6,WTMQAYERNFWDPSNQLDTQQEIK,2.6
7,WTMQAYERNFWDPSHQLDTQQEIK,2.56
8,WTMQAYERNFWDPSCQLDTQQEIK,2.3
9,WTMQAYERNFWDPSQQLDTQQEIK,2.08
10,WTMQAYERNFWDPSKQLDTQQEIK,2.43
11,WTMQAYERNFWDPSTQLDTQQEIK,3.12
12,WTMQAQERNFWDPSPQLDTQQEIK,2.83
13,WTMQATERNFWDPSPQLDTQQEIK,2.83
14,WTMQALERNFWDPSPQLDTQQEIK,2.98
15,WTMQAVERNFWDPSPQLDTQQEIK,2.79
16,WTMQASERNFWDPSPQLDTQQEIK,2.78
17,WTMQAGERNFWDPSPQLDTQQEIK,2.86
18,WTMQAEERNFWDPSPQLDTQQEIK,3.19
19,WTMQAKERNFWDPSPQLDTQQEIK,3.06
20,WTMQACERNFWDPSPQLDTQQEIK,2.87
21,WTMQARERNFWDPSPQLDTQQEIK,3.58
22,WTMIAYERNFWDPSPQLDTQQEIK,3.51
23,WTMVAYERNFWDPSPQLDTQQEIK,2.25
24,WTMMAYERNFWDPSPQLDTQQEIK,2.92

row,Variant,protein stability index
1,WTMKAYERNFWDPSPQLDTQQEIK,1.5
2,WTMGAYERNFWDPSPQLDTQQEIK,3.34
3,WTMWAYERNFWDPSPQLDTQQEIK,1.72
4,WTMTAYERNFWDPSPQLDTQQEIK,1.95
5,WTMAAYERNFWDPSPQLDTQQEIK,2.23
6,WTMNAYERNFWDPSPQLDTQQEIK,1.67
7,WTMLAYERNFWDPSPQLDTQQEIK,2.35
8,WTMPAYERNFWDPSPQLDTQQEIK,3.21
9,WTMEAYERNFWDPSPQLDTQQEIK,2.05
10,WTMQAYERNFWDPTPQLDTQQEIK,2.89
11,WTMQAYERNFWDPQPQLDTQQEIK,2.76
12,WTMQAYERNFWDPIPQLDTQQEIK,2.17
13,WTMQAYERNFWDPDPQLDTQQEIK,3.26
14,WTMQAYERNFWDPSPQLLTQQEIK,2.63
15,WTMQAYERNFWDPSPQLETQQEIK,2.7
16,WTMQAYERNFWDPSPQLNTQQEIK,2.17
17,WTMQAYERNFWDPSPQLYTQQEIK,1.97
18,WTMQAYERNFWDPSPQLKTQQEIK,2.16
19,WTMQAYERNFWDPSPQLWTQQEIK,1.83
20,WTMQAYERNFWDPSPQLATQQEIK,2.32
21,WTMQAYERNFWDPSPQLFTQQEIK,2.14
22,WTMQAYERNFWDPSPQLTTQQEIK,2.44
23,WTMQAYERNFWDPSPQLPTQQEIK,2.24
24,WTMQAYERNFWDPSPQLMTQQEIK,2.19

row,Variant,protein stability index
1,WTMQAYERNFWDPSPQLDLQQEIK,2.5
2,WTMQAYERNFWDPSPQLDWQQEIK,2.22
3,WTMQAYERNFWDPSPQLDRQQEIK,2.05
4,WTMQAYERNFWDPSPQLDAQQEIK,2.73
5,WTMQAYERNFWDPSPQLDSQQEIK,2.91
6,WTMQAYERNFWDPSPQLDDQQEIK,2.19
7,WTMQAYERNFWDPSPQLDNQQEIK,2.96
8,WTMQAYERNFWSPSPQLDTQQEIK,2.51
9,WTMQAYERNFWKPSPQLDTQQEIK,2.06
10,WTMQAYERNFWNPSPQLDTQQEIK,3.51
11,WTMQAYERNFWIPSPQLDTQQEIK,2.15
12,WTMQAYERNFWFPSPQLDTQQEIK,3.8
13,WTMQAYERNFWLPSPQLDTQQEIK,3.49
14,WTMQAYERNFWEPSPQLDTQQEIK,2.31
15,WTMQAYERNFWDPSPQLDTAQEIK,1.64
16,WTMQAYERNFWDPSPQLDTPQEIK,2.06
17,WTMQAYERNFWDPSPQLDTYQEIK,2.07
18,WTMQAYERNFWDPSPQLDTSQEIK,2.07
19,WTMQAYERNFWDPSPQLDTLQEIK,2.19
20,WTMQAYERNFWDPSPQLDTRQEIK,2.44
21,WTMQAYERNFWDPSPQLDTMQEIK,2.27
22,WTMQAYERNFWDPSPQLDTVQEIK,2.34
23,WNMQAYERNFWDPSPQLDTQQEIK,2.11
24,WSMQAYERNFWDPSPQLDTQQEIK,2

row,Variant,protein stability index
1,WMMQAYERNFWDPSPQLDTQQEIK,2.14
2,WCMQAYERNFWDPSPQLDTQQEIK,2.15
3,WPMQAYERNFWDPSPQLDTQQEIK,3.82
4,WHMQAYERNFWDPSPQLDTQQEIK,1.89
5,WFMQAYERNFWDPSPQLDTQQEIK,1.71
6,RTMQAYERNFWDPSPQLDTQQEIK,4.08
7,STMQAYERNFWDPSPQLDTQQEIK,4.51
8,MTMQAYERNFWDPSPQLDTQQEIK,3.77
9,ETMQAYERNFWDPSPQLDTQQEIK,4.41
10,LTMQAYERNFWDPSPQLDTQQEIK,3.9
11,FTMQAYERNFWDPSPQLDTQQEIK,2.44
12,WTMQAYERNFWDPSPQLDTQQIIK,2.81
13,WTMQAYERNFWDPSPQLDTQQLIK,2.07
14,WTMQAYERNFWDPSPQLDTQQAIK,2.45
15,WTMQAYERNFWDPSPQLDTQQKIK,2.37
16,WTMQAYERNFWDPSPQLDTQQYIK,2.17
17,WTMQAYERNWWDPSPQLDTQQEIK,2.77
18,WTMQAYERNTWDPSPQLDTQQEIK,3.89
19,WTMQAYERNYWDPSPQLDTQQEIK,3.38
20,WTMQAYERNRWDPSPQLDTQQEIK,3.55
21,WTMQAYERNQWDPSPQLDTQQEIK,4.61
22,WTMQAYERNPWDPSPQLDTQQEIK,3.65
23,WTMQAYERNNWDPSPQLDTQQEIK,3.7
24,WTMQAYERNIWDPSPQLDTQQEIK,3.58

row,Variant,protein stability index
1,WTMQAYERNLWDPSPQLDTQQEIK,3.95
2,WTMQAYERNEWDPSPQLDTQQEIK,3.92
3,WTMQAYEANFWDPSPQLDTQQEIK,2.52
4,WTMQAYENNFWDPSPQLDTQQEIK,3.41
5,WTMQAYEGNFWDPSPQLDTQQEIK,2.59
6,WTMQAYESNFWDPSPQLDTQQEIK,3.21
7,WTMQAYEHNFWDPSPQLDTQQEIK,3.01
8,WTMQAYERNFWDPSPPLDTQQEIK,2.4
9,WTMQAYERNFWDPSPILDTQQEIK,2.33
10,WTMQAYERNFWDPSPELDTQQEIK,2.64
11,WTMQAYERNFWDPSPCLDTQQEIK,2.17
12,WTMQAYERNFWDPSPWLDTQQEIK,1.4
13,WTMQAYERNFWDPSPKLDTQQEIK,2.42
14,WTMQAYERNFWDPSPRLDTQQEIK,2.14
15,WTMQAYERNFWDPSPALDTQQEIK,2.24
16,WTMQAYERNFWDPSPFLDTQQEIK,2.5
17,WTMQAYERNFWDPSPQLDTQQEVK,2.02
18,WTMQAYERNFWDPSPQLDTQQEHK,2.75
19,WTMQAYERNFWDPSPQLDTQQEYK,2.32
20,WTMQAYERNFWDPSPQLDTQQEPK,2.97
21,WTMQAYERNFWDPSPQLDTQQECK,2.11
22,WTMQAYERNFWDPSPQLDTQQEQK,3.15
23,WTMQAYERNFWDPSPQLDTQQEIQ,2.44
24,WTMQAYERNFWDPSPQLDTQQEIG,2.29

row,Variant,protein stability index
1,WTMQAYERNFWDPSPQLDTQQEIT,2.63
2,WTMQAYERNFWDPSPQLDTQQEIV,2.17
3,WTMQAYERNFWDPSPQLDTQQEIR,2.58
4,WTMQAYERNFWDPSPQLDTQQEIL,1.76
5,WTMQAYERNFWDPSPQLDTQQEIN,2.31
6,WTMQAYERNFWDPSPQLDTQQEII,1.98
7,WTMQAYERNFWDPSPQLDTQQEID,2.83
8,WTMQAYERNFWDPSPQLDTQQEIC,2.19
9,WTMQAYERNFWDPSPQLDTQQEIA,2.47
10,WTMQAYFRNFWDPSPQLDTQQEIK,2.88
11,WTMQAYDRNFWDPSPQLDTQQEIK,3.25
12,WTMQAYYRNFWDPSPQLDTQQEIK,2.26
13,WTMQAYWRNFWDPSPQLDTQQEIK,2.39
14,WTMQAYNRNFWDPSPQLDTQQEIK,3.04
15,WTMQAYARNFWDPSPQLDTQQEIK,2.02
16,WTMQAYSRNFWDPSPQLDTQQEIK,2.45
17,WTMQAYRRNFWDPSPQLDTQQEIK,2.86
18,WTMQAYTRNFWDPSPQLDTQQEIK,2.72
19,WTMQAYKRNFWDPSPQLDTQQEIK,2.94
20,WTMQAYMRNFWDPSPQLDTQQEIK,1.93
